17 molecules from patent US20100240066A1 (MCGILL UNIVERSITY, published 2010) can be followed below.

Where two headings read alike, the source gives them in different places. Where no end group is shown, it is not given here.

Holding throughout (experiment): phage ELISA
(In an ELISA, binding on a coated surface is turned into a signal by an enzyme label.)

The target in test [1] is T1, N-cadherin/Fc chimeric protein (human, UniProt P19022 160-724).
T1 construct: range 160-724; Bought from R&D Systems; also called N-cad/Fc; human N-cadherin/Fc chimeric protein; not shown: Fc region of human IgG1
T1 sequence (looked up): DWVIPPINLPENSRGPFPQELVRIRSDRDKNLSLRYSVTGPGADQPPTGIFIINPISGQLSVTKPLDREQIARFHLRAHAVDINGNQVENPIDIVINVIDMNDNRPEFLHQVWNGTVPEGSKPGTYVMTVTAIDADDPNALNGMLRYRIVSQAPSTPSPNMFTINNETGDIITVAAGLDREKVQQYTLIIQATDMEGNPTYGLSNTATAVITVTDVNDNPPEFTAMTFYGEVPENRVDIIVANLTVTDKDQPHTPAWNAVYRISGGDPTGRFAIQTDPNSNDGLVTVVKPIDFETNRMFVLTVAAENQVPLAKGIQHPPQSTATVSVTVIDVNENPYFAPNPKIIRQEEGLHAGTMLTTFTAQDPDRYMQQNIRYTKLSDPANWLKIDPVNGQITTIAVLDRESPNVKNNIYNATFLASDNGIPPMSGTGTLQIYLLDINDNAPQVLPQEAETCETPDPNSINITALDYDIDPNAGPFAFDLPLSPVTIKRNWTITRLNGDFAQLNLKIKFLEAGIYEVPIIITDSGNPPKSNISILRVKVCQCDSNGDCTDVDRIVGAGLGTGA
As to the method: (§1) The binding of each clone to the cadherin/Fc chimeric proteins was confirmed by ELISA. Wells of ProBind microtiter plates (Falcon) were coated with either N-cadherin/Fc or E-cadherin/Fc chimeric protein (100 ng/well) or human IgG1 (which contains the Fc fragment) (100 ng/well). After blocking the nonspecific sites with TBS containing 3% BSA and 1.2 mM CaCl₂ for 1 h at 37° C., phage clones (10⁹ pfu) diluted in TBST containing 3% BSA and 1.2 mM CaCl₂ (100 μl/well). Non-coated wells were also used to exclude any phage that bound to the plastic surface. After 1 h incubation at room temperature, wells were washed 3 times with TBST containing 3% BSA and 1.2 mM CaCl₂. M13 phage without any insert were used to control the non-specific binding of the phage itself to the target. Monoclonal anti-M13 antibody conjugated to horseradish peroxidase (Amersham Biosciences, Piscataway, N.J.) was diluted in TBST containing 3% BSA and 1.2 mM CaCl₂ (1:2,000) and added to each well (100 μl/well). After 1 h incubation at room temperature, wells were washed three times with TBST containing 3% BSA and 1.2 mM CaCl₂ and once with TBS containing 1.2 mM CaCl₂. Horseradish peroxidase substrate, TMB (Sigma), was added to each well (100 μl/well and after color development the reaction was stopped by addition of 100 μl 0.5 M sulphuric acid to each well. The intensity of the color was measured at 450 nm.
(§2) The phage clones shown to bind to the N-cadherin/Fc chimeric protein by ELISA were also evaluated for their ability to bind to E-cadherin/Fc and VE-cadherin/Fc chimeric proteins. The phage clones shown to bind to the E-cadherin/Fc chimeric protein by ELISA were also evaluated for their ability to bind to N-cadherin/Fc and VE-cadherin/Fc chimeric proteins. The same ELISA protocol described in the previous section was used to perform this evaluation with the exception that the wells were coated with either 100 ng N-cadherin/Fc, E-cadherin/Fc or VE-cadherin/Fc chimeric protein (R&D Systems, Minneapolis, Minn.).

The target in test [2] is T2, E-cadherin/Fc chimeric protein (human, UniProt P12830 155-707).
T2 construct: range 155-707; Bought from R&D Systems; also called E-cad/Fc; human E-cadherin/Fc chimeric protein; not shown: Fc region of human IgG1
T2 sequence (looked up): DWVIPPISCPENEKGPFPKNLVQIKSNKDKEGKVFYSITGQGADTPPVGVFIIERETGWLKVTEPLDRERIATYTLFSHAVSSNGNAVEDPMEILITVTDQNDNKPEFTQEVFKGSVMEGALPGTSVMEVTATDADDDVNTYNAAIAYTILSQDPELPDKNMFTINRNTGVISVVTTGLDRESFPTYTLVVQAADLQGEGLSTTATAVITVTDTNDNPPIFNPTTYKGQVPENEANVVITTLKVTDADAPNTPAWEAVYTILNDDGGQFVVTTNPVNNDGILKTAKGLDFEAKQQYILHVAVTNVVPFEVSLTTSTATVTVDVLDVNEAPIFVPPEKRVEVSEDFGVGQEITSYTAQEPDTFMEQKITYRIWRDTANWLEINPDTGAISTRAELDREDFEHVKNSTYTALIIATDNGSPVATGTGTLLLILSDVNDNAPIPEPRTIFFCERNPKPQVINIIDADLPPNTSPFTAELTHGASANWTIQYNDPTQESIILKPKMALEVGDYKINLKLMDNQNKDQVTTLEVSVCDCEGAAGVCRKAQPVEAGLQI
As to the method:
as §1, §2

For test [3], the target named is T3, VE-cadherin/Fc chimeric protein (UniProt P33151 48-593).
T3 construct: Bought from R&D Systems; also called vascular endothelial (VE)-cadherin/Fc chimeric protein; not shown: Fc part not described
T3 sequence (looked up): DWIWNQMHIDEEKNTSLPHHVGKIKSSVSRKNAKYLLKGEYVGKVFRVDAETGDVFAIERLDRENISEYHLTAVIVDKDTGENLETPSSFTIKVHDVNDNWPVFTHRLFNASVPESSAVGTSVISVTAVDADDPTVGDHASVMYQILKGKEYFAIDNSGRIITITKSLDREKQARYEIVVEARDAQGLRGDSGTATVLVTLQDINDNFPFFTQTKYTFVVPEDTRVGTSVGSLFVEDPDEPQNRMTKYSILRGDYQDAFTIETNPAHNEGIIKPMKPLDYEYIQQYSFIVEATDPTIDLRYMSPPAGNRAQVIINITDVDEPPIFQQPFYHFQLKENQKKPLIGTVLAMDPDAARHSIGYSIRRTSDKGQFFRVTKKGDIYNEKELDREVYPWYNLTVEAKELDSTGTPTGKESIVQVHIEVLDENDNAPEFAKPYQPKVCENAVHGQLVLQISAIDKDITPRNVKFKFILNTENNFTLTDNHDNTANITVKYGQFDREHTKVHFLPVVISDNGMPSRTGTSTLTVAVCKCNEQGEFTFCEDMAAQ
As to the method:
as §1, §2

Test [4] deals with T2, E-cadherin/Fc chimeric protein. As to the method: as §2
The source holds these as a separate data set.

Test [5] addresses T3, VE-cadherin/Fc chimeric protein. As for the experimental part: as §2
The source holds these as a separate data set.

B1: phage clone Ec 4 (peptide)
peptide: WQMVLCPAC
modifications: not fully specified; cysteine pairing not given here; also: displayed on M13 phage pIII
notes: whole phage in the assay
Regarding B1, the results for the binding result in test [1], in test [2] and in test [3] were “binds”, “binds” and “no binding (tested: 10^9 pfu)”, respectively.

B2: phage clone Ec 12-a5 (peptide)
peptide: AWTWSLPTLPQS
notes: whole phage in the assay
As to B2, the binding result is given as “binds” in test [1], “binds” in test [2] and “no binding (tested: 10^9 pfu)” in test [3].

B3: phage clone Ec 7 (peptide)
peptide: WTMCYPDTC
modifications: not fully specified; cysteine pairing not given here; also: displayed on M13 phage pIII
notes: whole phage in the assay
Turning to B3, the binding result in test [1] is on record as “binds”; in test [2] it was “binds”; in test [3], “no binding (tested: 10^9 pfu)”.

B4: phage clone Ec a23 (peptide)
peptide: CSRPQSGLC
modifications: not fully specified; cysteine pairing not given here; also: displayed on M13 phage pIII
notes: whole phage in the assay
As to B4, the binding result in test [1] was “binds”; in test [2] it was “binds”; in test [3], “no binding (tested: 10^9 pfu)”.

B5: phage clone Nc 19 (peptide)
peptide: WHTSWSDTY
notes: whole phage in the assay
As for B5, the binding result in test [4] and in test [5] was “no binding (tested: 10^9 pfu)” in each case.

B6: phage clone Ec 21 (peptide)
peptide: WQWCFKATC
modifications: not fully specified; cysteine pairing not given here; also: displayed on M13 phage pIII
notes: whole phage in the assay
For B6, the figures for the binding result in test [1], in test [2] and in test [3] were “binds”, “binds” and “no binding (tested: 10^9 pfu)”, respectively.

B7: phage clone Ec 1 (peptide)
peptide: WELVQCLTC
modifications: not fully specified; cysteine pairing not given here
notes: whole phage in the assay
Take B7: the binding result is “binds” in test [1], “binds” in test [2] and “no binding (tested: 10^9 pfu)” in test [3].

B8: phage clone Nc 25 (peptide)
peptide: WELCVSSSC
modifications: not fully specified; cysteine pairing not given here; also: displayed on M13 phage pIII
notes: whole phage in the assay
Turning to B8, the binding result in test [4] and in test [5] was “no binding (tested: 10^9 pfu)” each time.

B9: phage clone Ec a22 (peptide)
peptide: WTWHWPPCC
notes: whole phage in the assay
Take B9: the values for the binding result in test [1], in test [2] and in test [3] were “binds”, “binds” and “no binding (tested: 10^9 pfu)”, respectively.

B10: phage clone Ec a4 (peptide)
peptide: CSKYNSPLC
modifications: not fully specified; cysteine pairing not given here; also: displayed on M13 phage pIII
notes: whole phage in the assay
Take B10: the binding result is “binds” in test [1], “binds” in test [2] and “no binding (tested: 10^9 pfu)” in test [3].

B11: phage clone Ec 12-a11 (peptide)
peptide: SWEWYIPYLNRT
notes: whole phage in the assay
For B11, the binding result is recorded as “binds” in test [1], “binds” in test [2] and “no binding (tested: 10^9 pfu)” in test [3].

B12: phage clone Nc 15 (peptide)
peptide: WEVCLTEKC
modifications: not fully specified; cysteine pairing not given here; also: displayed on M13 phage pIII
notes: whole phage in the assay
Regarding B12, the binding result in test [4] and in test [5] was “no binding (tested: 10^9 pfu)” throughout.

B13: phage clone Nc a3 (peptide)
peptide: WEVRLTEKC
notes: whole phage in the assay
For B13, the binding result in test [4] and in test [5] was “no binding (tested: 10^9 pfu)” each time.

B14: phage clone Ec a3 (peptide)
peptide: WQMVLCPAC
modifications: not fully specified; cysteine pairing not given here; also: displayed on M13 phage pIII
notes: whole phage in the assay
Take B14: the binding result in test [1] is given as “binds”; in test [2], “binds”; in test [3], “no binding (tested: 10^9 pfu)”.

B15: phage clone Nc 12-04 (peptide)
peptide: SWTLYTPSGQSK
notes: whole phage in the assay
Consider B15, for which the binding result in test [4] and in test [5] was “no binding (tested: 10^9 pfu)” each time.

B16: phage clone Ec 2 (peptide)
peptide: WQFCYAQHC
modifications: not fully specified; cysteine pairing not given here; also: displayed on M13 phage pIII
notes: whole phage in the assay
With B16, the binding result in test [1] is “binds”; in test [2], “binds”; in test [3], “no binding (tested: 10^9 pfu)”.

B17: phage clone Ec a5 (peptide)
peptide: WTFNFCTAC
modifications: not fully specified; cysteine pairing not given here; also: displayed on M13 phage pIII
notes: whole phage in the assay
With B17, the binding result in test [1] is “binds”; in test [2], “binds”; in test [3], “no binding (tested: 10^9 pfu)”.
